Experimental data published in US20250320480A1, “Immunoglobulin Cleaving Enzyme” (priority 2021, published 2025).
“Also recorded” adds a separate entry of the source. Non-standard residues stand in square brackets, D forms with d. Residues, ends and D or L forms follow the SMILES beside them. *: point of attachment. Sta = CC(C)C[C@H](N)[C@@H](O)CC(=O)O; Isovaleryl = CC(C)CC(=O)*

What was measured:
IdeSork2.0 = test: Protease inhibitor assay; type: biochemical, Streptococcus krösus; details: IgG1 pre-incubated with inhibitor, IdeSork2.0 1:5, overnight at 37° C., SDS-PAGE
Experimental: FIG. 4. Protease inhibitor sensitivity of IdeSork2.0.
IgG1 (trastuzumab) was pre-incubated with a set of protease inhibitors (G-Biosciences) before addition of IdeSork2.0 (of SEQ ID NO: 3) (1:5), and the mixture was allowed to incubate overnight at 37° C. before analysis on SDS-PAGE.

casein = test: General protease activity, EnzChek protease assay; type: biochemical; details: casein substrate; FabULOUS 5 μg, FabRICATOR 10 μg, IdeSORK2.0 10 μg
Experimental: FIG. 2. General protease activity. General protease activity was measured with the EnzCHECK protease assay, using casein as a substrate.
General protease activity was determined using the EnzChek Protease Assay kit, according to manufacturer's instructions. As a positive control the general protease FabULOUS (SpeB, 5 μg) was used, and as a negative control the IgG-specific protease FabRICATOR (IdeS, 10 μg). IdeSORK2.0 was added to a total quantity of 10 μg.

IgG1 = test: Comparison to other IgG proteases: IgG1; type: biochemical; details: SDS-PAGE
Experimental: (§1) FIG. 10. IdeSork2.0 is having a similar activity compared to IdeS and IdeZ. To investigate if IdeSork2.0 is hydrolyzing IgG in a similar way as IdeS and IdeZ they were all incubated against IgG1 and IgG2 and analyzed on SDS-PAGE. The cleavage patterns look identical, with both IdeSork2.0 and IdeS having less activity towards IgG2.
(§2) To further look into the activity of IdeSORK2.0, its activity was compared with IdeS and IdeZ against both IgG1 and IgG2.

IgG2 = test: Comparison to other IgG proteases: IgG2; type: biochemical; details: SDS-PAGE
Experimental: as §1, §2

IgG in human serum = test: Activity of IgG hydrolases in human serum; type: biochemical; details: serum (100%), E:S 1:40, 0-4 hours at 37° C., non-reduced SDS-PAGE
Experimental: FIG. 15. Activity of IgG hydrolases in human serum. Serum (100%) was spiked with IgG hydrolases and activity was analyzed over time using non-reduced SDS-PAGE.
For serum activity assays, an E: S ratio of 1:40 (assuming 10 mg/mL IgG in serum) was used, incubating 0-4 hours at 37° C. before analysis on a non-reduced SDS-PAGE. All enzymes were supplied by Genovis AB.

human IgG = details: in particular when cleaving IgG2; cited from earlier work
[1] = biological target: denatured and reduced IgG

Question: For `CC(C)CC(=O)N[C@H](C(=O)N[C@H](C(=O)N[C@@H](CC(C)C)[C@@H](O)CC(=O)N[C@@H](C)C(=O)N[C@@H](CC(C)C)[C@@H](O)CC(=O)O)C(C)C)C(C)C` [pepstatin] (Isovaleryl-VV[Sta]A[Sta]-OH), which “Inhibition of IdeSork2.0 hydrolysis of IgG1 (trastuzumab)” value (“Inhibition” below) (IdeSork2.0) is on record?
Answer: besides aprotinin, EDTA, and pepstatin

Question: For “FabULOUS: general protease (SpeB), positive control [reference compound]”, which “General protease activity (signal)” value (casein) is on record?
Answer: high signal

Question: With `O=C(O)CN(CCN(CC(=O)O)CC(=O)O)CC(=O)O` [EDTA] as the molecule, how does the “Inhibition” value (IdeSork2.0) read?
Answer: unaffected; also recorded: besides aprotinin, EDTA, and pepstatin

Question: For aprotinin, which “Inhibition” value (IdeSork2.0) is on record?
Answer: besides aprotinin, EDTA, and pepstatin

Question: Which “Inhibition” value (IdeSork2.0) does the source give for `CC(C)C[C@H](NC(=O)[C@@H](O)[C@H](N)Cc1ccccc1)C(=O)O` [Bestatin] here?
Answer: only partly inhibitory

B1: IdeZ (protein)
chain: DDYQRNATEAYAKEVPHQITSVWTKGVTPLTPEQFRYNNEDVIHAPYLAHQGWYDITKAFDGKDNLLCGAATAGNMLHWWFDQNKTEIEAYLSKHPEKQKIIFNNQELFDLKAAIDTKDSQTNSQLFNYFRDKAFPNLSARQLGVMPDLVLDMFINGYYLNVFKTQSTDVNRPYQDKDKRGGIFDAVFTRGDQTTLLTARHDLKNKGLNDISTIIKQELTEGRALALSHTYANVSISHVINLWGADFNAEGNLEAIYVTDSDANASIGMKKYFVGINAHGHVAISAKKIEGENIGAQVLGLFTLSSGKDIWQKLS
Question: With B1 as the molecule, how does the “hydrolysis of IgG, SDS-PAGE” value (human IgG1) read?
Answer: All enzymes were able to hydrolyze the antibodies in seemingly an identical fashion, though slightly different efficiently

Question: What about the “hydrolysis of IgG, SDS-PAGE” value (human IgG2) of the same molecule?
Answer: All enzymes were able to hydrolyze the antibodies in seemingly an identical fashion, though slightly different efficiently

B2: IdeZ: IgG cysteine protease produced by Streptococcus equi ssp. zooepidemicus (protein)
chain: B1 chain
Question: Which “Hydrolysis of IgG1” value (IgG1) does the source give for B2 here?
Answer: able to hydrolyze

Question: What about the “Hydrolysis of IgG2” value (IgG2) of the same molecule?
Answer: able to hydrolyze

Question: What about the “Immunoglobulin cleavage activity in the presence of human serum” value (IgG in human serum) of the same molecule?
Answer: immunoglobulin cleavage activity

Question: And the “IgG cysteine protease activity against human IgG” value (human IgG)?
Answer: considerably lower than that of IdeS

B3: IdeS (Immunoglobulin G-degrading enzyme of S. pyogenes) (protein)
chain: DSFSANQEIRYSEVTPYHVTSVWTKGVTPPANFTQGEDVFHAPYVANQGWYDITKTFNGKDDLLCGAATAGNMLHWWFDQNKDQIKRYLEEHPEKQKINFNGEQMFDVKEAIDTKNHQLDSKLFEYFKEKAFPYLSTKHLGVFPDHVIDMFINGYRLSLTNHGPTPVKEGSKDPRGGIFDAVFTRGDQSKLLTSRHDFKEKNLKEISDLIKKELTEGKALGLSHTYANVRINHVINLWGADFDSNGNLKAIYVTDSDSNASIGMKKYFVGVNSAGKVAISAKEIKEDNIGAQVLGLFTLSTGQDSWNQTN
Question: With B3 as the molecule, how does the “hydrolysis of IgG, SDS-PAGE” value (human IgG1) read?
Answer: All enzymes were able to hydrolyze the antibodies in seemingly an identical fashion, though slightly different efficiently

Question: What about the “hydrolysis of IgG, SDS-PAGE” value (human IgG2) of the same molecule?
Answer: All enzymes were able to hydrolyze the antibodies in seemingly an identical fashion, though slightly different efficiently

B4: IdeS: Immunoglobulin G-degrading enzyme of S. pyogenes, IgG-specific cysteine protease (protein)
chain: B3 chain
Question: What does the source list for B4?
Answer: General protease activity (signal) (casein): almost no signal; Hydrolysis of IgG1 (IgG1): able to hydrolyze; Hydrolysis of IgG2 (IgG2): able to hydrolyze; also recorded: less activity; Immunoglobulin cleavage activity in the presence of human serum (IgG in human serum): immunoglobulin cleavage activity

B5: IdeSORK2.0 (protein)
chain: MSKRKLLKKIEKKDTSSVLTQKKQTKTLWADGVQVDDKDFKPSTENFGTNYLAAEYGIGKGYYDINKKFDGTDDDLCSGVVAANQLHWWLDRNKDYIEKYRQQSKDNGVTIGNTDIFELNKLHDEDQSNFFDFIKKSFGNKFLQPERLLNMYINGYGYLTSQDKAKTSQPSPSKLNFFQKVFKNNLLTDKTPINDIDEFSSQTKNALQNHKVLAVSFASIKNRGLGHVVTVWGADFDENGKVVALYVTDSDDRSKNIGNAKLGMKKLRIEVSAQDSSTIKLTGFEDKNSGGSLRHLYSLSTGEQIWKKYFEETHHHHHH
Question: For B5, which “hydrolysis of IgG” value (IVIG) is on record?
Answer: Incubation with polyclonal IgG (e.g. IVIG) resulted in near complete hydrolysis

Question: What about the “percentage hydrolysis of IgG” value (IgG) of the same molecule?
Answer: A ratio of 1:40 hydrolyzes >95% of IgG in 30-60 minutes

Question: What about the “hydrolysis of IgG, SDS-PAGE” value (cow IgG) of the same molecule?
Answer: only showed activity against horse and guinea pig IgG (no activity on cow IgG)

Question: And the “hydrolysis of IgG, SDS-PAGE” value [1]?
Answer: IdeSORK2.0 is not active against denatured and reduced IgG

Question: And the “hydrolysis of IgG, SDS-PAGE” value (dog IgG)?
Answer: only showed activity against horse and guinea pig IgG (no activity on dog IgG)

Question: And the “hydrolysis of IgG, SDS-PAGE” value (guinea pig IgG)?
Answer: only showed activity against horse and guinea pig IgG

Question: And the “hydrolysis of IgG, SDS-PAGE” value (horse IgG)?
Answer: only showed activity against horse and guinea pig IgG

Question: And the “hydrolysis, SDS-PAGE” value (human IgA)?
Answer: IdeSORK2.0 is not active towards IgA

Question: What about the “hydrolysis of IgG, SDS-PAGE” value (monoclonal IgG4) of the same molecule?
Answer: can also hydrolyze monoclonal IgG4

Question: What about the “hydrolysis of IgG, SDS-PAGE” value (mouse IgG1) of the same molecule?
Answer: but not mIgG1 or mIgG2b

Question: And the “hydrolysis of IgG, SDS-PAGE” value (mouse IgG2a)?
Answer: the protease is active against mIgG2a

Question: And the “hydrolysis of IgG, SDS-PAGE” value (mouse IgG2b)?
Answer: but not mIgG1 or mIgG2b

Question: And the “hydrolysis of IgG, SDS-PAGE” value (porcine IgG)?
Answer: only showed activity against horse and guinea pig IgG (no activity on porcine IgG)

Question: What about the “hydrolysis of IgG, SDS-PAGE” value (rat IgG) of the same molecule?
Answer: only showed activity against horse and guinea pig IgG (no activity on rat IgG)

Question: And the “hydrolysis of IgG, SDS-PAGE” value (sheep IgG)?
Answer: only showed activity against horse and guinea pig IgG (no activity on sheep IgG)
